Assay results from patent US20240043505A1.

Biological target: SARS-CoV-2 RBD E484K mutant (SARS-CoV-2), P0DTC2
Conditions: remark: other sources report otherwise

B1: Nb21 (VHH)
VHH: QVQLVESGGGLVQAGGSLRLSCAVSGLGAHRVGWFRRAPGKEREFVAAIGANGGNTNYLDSVKGRFTISRDNAKNTIYLQMNSLKPQDTAVYYCAARDIETAEYTYWGQGTQVTVSS
binding affinity fold change relative to RBD WT: < -1000 fold
